Laboratory results from article PMC4621449.

Target: SO_3165 antitoxin (MNT family), SO_3165-CHis (Shewanella oneidensis (MR-1)) (UniProt Q8ECH7)
Assay: EMSA
Details: 10 mM HEPES pH 7.3, 20 mM KCl, 1 mM MgCl2, 5% glycerol, NP-40, poly dI-dC, 25 C, 1 h; 0.05 pmol biotin-DNA; 6% gel in 0.5x TBE

Sequence of SO_3165 antitoxin (MNT family), SO_3165-CHis (Shewanella oneidensis (MR-1)) (Q8ECH7 whole entry): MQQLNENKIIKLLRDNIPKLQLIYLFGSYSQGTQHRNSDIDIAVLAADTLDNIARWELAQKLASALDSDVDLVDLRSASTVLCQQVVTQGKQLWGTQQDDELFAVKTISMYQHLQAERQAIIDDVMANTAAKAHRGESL

## TACGAGGCCAGAATTTAAAAGCGCAGCCGTCAGAAATGCAGCGATTAGAAGAAGTTGAAACTTCCGATGCAACCTCTTCAGACGCTGAACTACCAATACTTAAGCACACACATATAGAAAACCCGTCCCTACTATACCATAAACAATGTCAGGTACTGCGTATCGTTATAGAATGCACTAAAAAGTTCTAGATTAGAGCCACACAGTGGCGTCTTCAAAACCTGTGTCCGTCCTTTTGGCTCCGCCTTAATATGCTATATACTCATCCCGTATTCATCAAATCGTGCAATGGACCT (double strand) [PSO_3165-3166 promoter]
  binding: binds
